The results in this text go back to PMC4698733 (2016).

Sequences and labels used below:
B1: MEIG1 wild type, two-hybrid fusion from MEIG1/pGBKT7 [mouse] / Parkin co-regulated gene protein (PACRG), two-hybrid fusion from PACRG/pGADT7 [mouse] (parent complex)
chain 1: MATSDVKPKSISRAKKWSEEIENLYRFQQAGYRDEIEYKQVKQVAMVDRWPETGYVKKLQRRDNTFFYYNKERECEDKEVHKVKVYVY
chain 2: not shown

In one test the parent is B1. Kind of test: yeast two-hybrid, α-galactosidase activity; Yeast strain AH109 co-transformed with PACRG/pGADT7 and MEIG1/pGBKT7 plasmids; parent: 65; read off a plot.
Regarding chain 1 R62E, the response was approximately 67. On to chain 1 Y25A, for which the response is approximately 58.

As to chain 1 I36A, the response is approximately 67. On the same count and under the same terms, the value for chain 1 F66A was approximately 15; that for chain 1 E20R was approximately 72; that for chain 1 H81A was approximately 85. Still for that read-out and setting: the value for chain 1 W50A was approximately 10.

In the case of chain 1 V87A, the response was approximately 72. As to chain 1 K9E, the response is approximately 72. On the same count and under the same terms, with chain 1 K57E the figure was approximately 22. As for chain 1 R13E, the response was approximately 81.

Turning to chain 1 Y68A, the response was approximately 5.

The variants in another test derive from B1. As to the kind of experiment: yeast two-hybrid, α-galactosidase activity; Yeast strain AH109 co-transformed with PACRG/pGADT7 and MEIG1/pGBKT7 plasmids; parent: 64; read off a plot.
For the variant chain 1 W50A, the response is approximately 12. On the same count and under the same terms, with chain 1 W50A, chain 1 Y68A the figure was approximately 2.2; with chain 1 Y68A, approximately 3.3.
